In patent US20150259426A1 (Novartis, published 2015):

T1: hGITR (human, UniProt Q9Y5U5)
T1 construct: extracellular domain, E. coli lysate captured on a His capture plate; Target named only on the sheet; the construct is not described in the text
T1 sequence (extracellular domain, looked up): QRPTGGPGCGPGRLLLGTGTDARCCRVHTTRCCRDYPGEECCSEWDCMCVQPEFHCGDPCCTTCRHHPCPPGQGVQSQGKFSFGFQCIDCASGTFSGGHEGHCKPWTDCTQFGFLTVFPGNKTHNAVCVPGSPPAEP

T2: TNFR1 extracellular domain (TNFRSF1A, Leu34-Thr211) (UniProt P19438 34-211)
T2 construct: range 34-211; ECD cloned into pBadThioTopo; E. coli lysate on His capture plates
T2 sequence (looked up): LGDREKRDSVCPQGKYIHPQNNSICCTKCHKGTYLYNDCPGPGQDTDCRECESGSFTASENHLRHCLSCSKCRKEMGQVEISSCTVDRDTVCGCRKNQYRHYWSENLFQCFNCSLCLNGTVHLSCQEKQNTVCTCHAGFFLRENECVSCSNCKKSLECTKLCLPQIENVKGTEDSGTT

T3: OX40 extracellular domain (TNFRSF4, Gly33-Gly212) (UniProt P43489 33-212)
T3 construct: ECD cloned into pBadThioTopo; E. coli lysate on His capture plates
T3 sequence (looked up): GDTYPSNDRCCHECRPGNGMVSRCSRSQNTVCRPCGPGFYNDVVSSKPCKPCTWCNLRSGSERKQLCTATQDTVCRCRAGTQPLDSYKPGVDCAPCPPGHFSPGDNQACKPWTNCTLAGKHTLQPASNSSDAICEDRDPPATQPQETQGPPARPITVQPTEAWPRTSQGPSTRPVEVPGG

T4: FAS extracellular domain (TNFRSF6, Ser20-Gly175) (UniProt P25445 20-175)
T4 construct: ECD cloned into pBadThioTopo; E. coli lysate on His capture plates
T4 sequence (looked up): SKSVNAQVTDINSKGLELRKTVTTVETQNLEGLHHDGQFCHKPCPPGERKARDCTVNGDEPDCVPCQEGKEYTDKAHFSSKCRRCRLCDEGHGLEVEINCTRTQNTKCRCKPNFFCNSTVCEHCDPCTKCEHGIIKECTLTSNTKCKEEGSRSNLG

T5: DcR3 (TNFRSF6B, Val27-Ala176) (UniProt O95407 27-176)
T5 construct: range 27-176; ECD cloned into pBadThioTopo; E. coli lysate on His capture plates
T5 sequence (looked up): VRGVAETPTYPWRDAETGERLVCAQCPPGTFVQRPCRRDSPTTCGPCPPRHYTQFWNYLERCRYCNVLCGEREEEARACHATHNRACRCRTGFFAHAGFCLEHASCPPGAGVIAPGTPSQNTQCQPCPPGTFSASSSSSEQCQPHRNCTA

T6: DcR2 extracellular domain (TNFRSF10D, Thr57-Thr198) (UniProt Q9UBN6 57-198)
T6 construct: range 57-198; ECD cloned into pBadThioTopo; E. coli lysate on His capture plates
T6 sequence (looked up): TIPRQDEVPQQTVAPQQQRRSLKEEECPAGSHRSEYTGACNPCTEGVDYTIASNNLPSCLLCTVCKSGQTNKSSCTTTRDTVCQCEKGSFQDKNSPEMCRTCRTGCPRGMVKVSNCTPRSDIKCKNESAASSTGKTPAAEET

T7: OPG (TNFRSF11B, Lys17-Ile197) (UniProt O00300 17-197)
T7 construct: range 17-197; ECD cloned into pBadThioTopo; E. coli lysate on His capture plates
T7 sequence (looked up): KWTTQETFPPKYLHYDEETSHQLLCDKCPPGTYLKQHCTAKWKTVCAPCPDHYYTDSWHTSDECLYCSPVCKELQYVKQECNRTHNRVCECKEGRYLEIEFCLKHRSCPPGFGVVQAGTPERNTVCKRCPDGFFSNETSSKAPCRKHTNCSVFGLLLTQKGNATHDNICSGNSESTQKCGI

B1: 4E6 tri (trivalent anti-DR5 NB construct) (VHH)
chain: EVQLVESGGGSVQAGDSLRLSCAASGRTFGSIRVGWFRQTPGKEREFVAAINRNDGTTYYADSVKGRFTISRDNAKNTVYMQMASLKPEDTAVYYCAAGLQYNRSADRVPVGAVYWGQGTQVTVSSGGGGSGGGGSGGGGSGGGGSGGGGSGGGGSGGGGSEVQLVESGGGSVQAGDSLRLSCAASGRTFGSIRVGWFRQTPGKEREFVAAINRNDGTTYYADSVKGRFTISRDNAKNTVYMQMASLKPEDTAVYYCAAGLQYNRSADRVPVGAVYWGQGTQVTVSSGGGGSGGGGSGGGGSGGGGSGGGGSGGGGSGGGGSEVQLVESGGGSVQAGDSLRLSCAASGRTFGSIRVGWFRQTPGKEREFVAAINRNDGTTYYADSVKGRFTISRDNAKNTVYMQMASLKPEDTAVYYCAAGLQYNRSADRVPVGAVYWGQGTQVTVSS
notes: three VHH units in one chain joined by GlySer linkers; not shown: CMYC-HIS6 tag
B2: 10F1 tri (trivalent anti-DR5 NB construct) (VHH, not shown: small tags and cut ends)
chain: EVQLVESGGGLVQPGGSLRLSCAASGFTFSRYWMYWVRQAPGKGLEWVSAINSGGGDTYYRDSVRGRFTISRDNFKNTLYLQMNSLKSEDTAVYYCAKAEGPPTFSLIRTMTVDPGAQGTQVTVSSGGGGSGGGGSGGGGSGGGGSGGGGSGGGGSGGGGSEVQLVESGGGLVQPGGSLRLSCAASGFTFSRYWMYWVRQAPGKGLEWVSAINSGGGDTYYRDSVRGRFTISRDNFKNTLYLQMNSLKSEDTAVYYCAKAEGPPTFSLIRTMTVDPGAQGTQVTVSSGGGGSGGGGSGGGGSGGGGSGGGGSGGGGSGGGGSEVQLVESGGGLVQPGGSLRLSCAASGFTFSRYWMYWVRQAPGKGLEWVSAINSGGGDTYYRDSVRGRFTISRDNFKNTLYLQMNSLKSEDTAVYYCAKAEGPPTFSLIRTMTVDPGAQGTQVTVSS

Assays:
[1] = target: T8, cell-bound human DR5 (Colo205 and other human cell lines) (human, UniProt O14763 56-440); assay: cell-based or functional assay
[2] = target: T8, cell-bound human DR5 (Colo205 and other …); assay: cell-based or functional assay; remark: listed apart in the source
[3] = target: T1, hGITR; assay: ELISA, receptor ECD from E. coli lysate on His capture plate;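 further: binding specificity screen across TNF receptor superfamily ectodomains, anti-V5 detection as expression reference, primary antibody incubation 1 h at room temperature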
[4] = target: T2, TNFR1 extracellular domain (TNFRSF1A, …); assay: as above
[5] = target: T9, TNFR3 extracellular domain (TNFRSF3, Pro30-Thr224) (UniProt P36941 30-224); assay: as above
T9 construct: range 30-224; ECD cloned into pBadThioTopo; E. coli lysate on His capture plates
T9 sequence (P36941 30-224 limits assumed): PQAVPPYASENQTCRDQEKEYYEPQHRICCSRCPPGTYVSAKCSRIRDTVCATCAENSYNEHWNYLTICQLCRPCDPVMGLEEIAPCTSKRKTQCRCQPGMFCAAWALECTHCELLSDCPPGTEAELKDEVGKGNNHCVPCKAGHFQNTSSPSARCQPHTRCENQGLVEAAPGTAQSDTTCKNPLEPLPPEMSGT

[6] = target: T3, OX40 extracellular domain (TNFRSF4, …); assay: as above
[7] = target: T10, CD40 extracellular domain (TNFRSF5, Val18-Leu192) (UniProt P25942 18-192); assay: as above
T10 construct: range 18-192; ECD cloned into pBadThioTopo; E. coli lysate on His capture plates
T10 sequence (P25942 18-192 limits assumed): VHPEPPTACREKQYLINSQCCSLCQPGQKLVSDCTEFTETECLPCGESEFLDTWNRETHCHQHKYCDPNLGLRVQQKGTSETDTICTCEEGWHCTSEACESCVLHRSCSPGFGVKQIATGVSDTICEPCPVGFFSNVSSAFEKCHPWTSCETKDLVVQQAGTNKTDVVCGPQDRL

[8] = target: T4, FAS extracellular domain (TNFRSF6, …); assay: as above
[9] = target: T5, DcR3 (TNFRSF6B, Val27-Ala176); assay: as above
[10] = target: T11, CD27 extracellular domain (TNFRSF7, Thr21-Ser187) (UniProt P26842 21-187); assay: as above
T11 construct: range 21-187; ECD cloned into pBadThioTopo; E. coli lysate on His capture plates
T11 sequence (P26842 21-187 limits assumed): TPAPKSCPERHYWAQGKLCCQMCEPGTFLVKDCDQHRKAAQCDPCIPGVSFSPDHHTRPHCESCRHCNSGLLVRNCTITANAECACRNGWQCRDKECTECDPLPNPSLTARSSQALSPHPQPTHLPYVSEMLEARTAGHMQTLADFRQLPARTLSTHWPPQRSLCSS

[11] = target: T12, CD137 extracellular domain (TNFRSF9, Glu19-Ile188) (UniProt Q07011 19-188); assay: as above
T12 construct: range 19-188; ECD cloned into pBadThioTopo; E. coli lysate on His capture plates
T12 sequence (Q07011 19-188 limits assumed): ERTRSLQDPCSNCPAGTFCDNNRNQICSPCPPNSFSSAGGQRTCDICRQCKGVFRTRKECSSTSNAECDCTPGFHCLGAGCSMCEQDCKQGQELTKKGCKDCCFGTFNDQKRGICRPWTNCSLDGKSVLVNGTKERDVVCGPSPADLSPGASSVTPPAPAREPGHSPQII

[12] = target: T6, DcR2 extracellular domain (TNFRSF10D, …); assay: as above
[13] = target: T7, OPG (TNFRSF11B, Lys17-Ile197); assay: as above
[14] = target: T13, BAFFR extracellular domain (TNFRSF13C, Met1-Gly64) (UniProt Q96RJ3 1-64); assay: as above
T13 construct: range 1-64; ECD cloned into pBadThioTopo; E. coli lysate on His capture plates
T13 sequence (Q96RJ3 1-64 limits assumed): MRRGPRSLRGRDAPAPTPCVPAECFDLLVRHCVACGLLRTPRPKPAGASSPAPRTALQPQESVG

[15] = target: cynomolgus DR5-Fc fusion protein (cyno DR5 amino acids 56 to 213 fused with human IgG1 Fc) (cynomolgus; human); assay: SPR (Biacore), CM5 chip coated with cynomolgus DR5-Fc, 1 to 100 nM NB construct

Binder	IC50, cell survival, Colo205 [1]	IC50, cell survival, A549 [2]	IC50, cell survival, ARPE-19 [2]	IC50, cell survival, H226 [2]	IC50, cell survival, H2052 [2]	IC50, cell survival, H2122 [2]	IC50, cell survival, Huvec [2]	IC50, cell survival, IMR-90 [2]	IC50, cell survival, Jurkat [2]	IC50, cell survival, M30 [2]	IC50, cell survival, MiaPaCa-2 [2]	IC50, cell survival, Molt4 [2]	IC50, cell survival, Panc-1 [2]	binding result [3]	binding result [4]	binding result [5]	binding result [6]	binding result [7]	binding result [8]	binding result [9]	also measured
B1	37.9 pM	≥ 20000 pM	≥ 20000 pM	20 pM	6 pM	2 pM	≥ 20000 pM	≥ 20000 pM	≥ 20000 pM	≥ 20000 pM	23 pM	≥ 20000 pM	≥ 20000 pM	no binding (tested: not stated)	no binding (tested: not stated)	no binding (tested: not stated)	no binding (tested: not stated)	no binding (tested: not stated)	no binding (tested: not stated)	no binding (tested: not stated)	binding result [10]: no binding (tested: not stated); binding result [11]: no binding (tested: not stated); binding result [12]: no binding (tested: not stated); binding result [13]: no binding (tested: not stated); binding result [14]: no binding (tested: not stated); Kd [15]: < 90 pM
B2	40.7 pM	≥ 20000 pM	≥ 20000 pM	20 pM	13 pM	3 pM	≥ 20000 pM	≥ 20000 pM	≥ 20000 pM	≥ 20000 pM	≥ 20000 pM	≥ 20000 pM	≥ 20000 pM	no binding (tested: not stated)	no binding (tested: not stated)	no binding (tested: not stated)	no binding (tested: not stated)	no binding (tested: not stated)	no binding (tested: not stated)	no binding (tested: not stated)	binding result [10]: no binding (tested: not stated); binding result [11]: no binding (tested: not stated); binding result [12]: no binding (tested: not stated); binding result [13]: no binding (tested: not stated); binding result [14]: no binding (tested: not stated); Kd [15]: < 600 pM
